Five molecules from publication PMC4681132 (Nature, 2015) can be followed below.

To fix the notation:
T1: RNA polymerase III subunit C160 (S. cerevisiae, UniProt P04051 1-1460)
T1 sequence: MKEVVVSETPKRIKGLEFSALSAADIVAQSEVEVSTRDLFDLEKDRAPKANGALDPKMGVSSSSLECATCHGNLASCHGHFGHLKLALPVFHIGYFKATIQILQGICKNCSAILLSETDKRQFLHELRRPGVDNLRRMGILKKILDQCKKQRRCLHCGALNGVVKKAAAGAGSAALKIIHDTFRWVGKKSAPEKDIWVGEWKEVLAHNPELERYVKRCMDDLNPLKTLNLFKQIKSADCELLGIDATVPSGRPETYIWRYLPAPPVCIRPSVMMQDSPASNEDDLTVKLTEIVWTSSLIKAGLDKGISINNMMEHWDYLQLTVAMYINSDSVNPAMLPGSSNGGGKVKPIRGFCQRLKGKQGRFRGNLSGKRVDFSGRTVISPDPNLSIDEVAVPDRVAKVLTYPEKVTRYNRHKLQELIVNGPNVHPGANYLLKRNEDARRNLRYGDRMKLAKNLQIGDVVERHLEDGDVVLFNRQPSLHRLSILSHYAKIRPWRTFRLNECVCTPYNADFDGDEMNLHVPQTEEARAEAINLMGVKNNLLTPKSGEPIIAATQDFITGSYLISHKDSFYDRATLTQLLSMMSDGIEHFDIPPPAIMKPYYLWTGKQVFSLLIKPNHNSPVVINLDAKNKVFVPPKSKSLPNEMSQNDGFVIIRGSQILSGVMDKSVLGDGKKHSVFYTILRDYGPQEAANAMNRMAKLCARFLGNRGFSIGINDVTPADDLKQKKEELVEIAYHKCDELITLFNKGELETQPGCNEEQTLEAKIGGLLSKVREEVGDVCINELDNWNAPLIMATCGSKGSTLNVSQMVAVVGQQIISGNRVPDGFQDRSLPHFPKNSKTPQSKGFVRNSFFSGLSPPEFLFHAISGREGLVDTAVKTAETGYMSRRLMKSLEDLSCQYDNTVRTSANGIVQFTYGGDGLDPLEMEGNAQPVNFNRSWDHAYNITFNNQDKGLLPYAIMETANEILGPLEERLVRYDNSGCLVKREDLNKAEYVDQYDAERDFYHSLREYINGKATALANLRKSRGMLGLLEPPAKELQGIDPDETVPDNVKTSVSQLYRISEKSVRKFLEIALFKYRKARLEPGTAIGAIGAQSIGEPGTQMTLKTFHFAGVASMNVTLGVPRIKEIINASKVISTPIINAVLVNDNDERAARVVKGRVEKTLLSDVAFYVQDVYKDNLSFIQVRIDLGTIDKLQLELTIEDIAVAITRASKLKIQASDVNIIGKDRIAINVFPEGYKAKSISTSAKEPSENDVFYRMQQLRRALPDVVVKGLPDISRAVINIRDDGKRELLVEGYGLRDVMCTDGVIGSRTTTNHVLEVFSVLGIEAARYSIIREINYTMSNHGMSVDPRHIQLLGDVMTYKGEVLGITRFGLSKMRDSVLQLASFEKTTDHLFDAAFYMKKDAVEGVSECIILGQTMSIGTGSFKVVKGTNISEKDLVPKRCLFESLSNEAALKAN

B1: RNA polymerase III subunit C31 (natural protein, S. cerevisiae, UniProt P17890 1-251, looked up)
chain: MSSYRGGSRGGGSNYMSNLPFGLGYGDVGKNHITEFPSIPLPINGPITNKERSLAVKYINFGKTVKDGPFYTGSMSLIIDQQENSKSGKRKPNIILDEDDTNDGIERYSDKYLKKRKIGISIDDHPYNLNLFPNELYNVMGINKKKLLAISKFNNADDVFTGTGLQDENIGLSMLAKLKELAEDVDDASTGDGAAKGSKTGEGEDDDLADDDFEEDEDEEDDDDYNAEKYFNNGDDDDYGDEEDPNEEAAF
B2: RNA polymerase III subunit C82 (natural protein, S. cerevisiae)
chain: MDELLGEALSAENQTGESTVESEKLVTPEDVMTISSLEQRTLNPDLFLYKELVKAHLGERAASVIGMLVALGRLSVRELVEKIDGMDVDSVKTTLVSLTQLRCVKYLQETAISGKKTTYYYYNEEGIHILLYSGLIIDEIITQMRVNDEEEHKQLVAEIVQNVISLGSLTVEDYLSSVTSDSMKYTISSLFVQLCEMGYLIQISKLHYTPIEDLWQFLYEKHYKNIPRNSPLSDLKKRSQAKMNAKTDFAKIINKPNELSQILTVDPKTSLRIVKPTVSLTINLDRFMKGRRSKQLINLAKTRVGSVTAQVYKIALRLTEQKSPKIRDPLTQTGLLQDLEEAKSFQDEAELVEEKTPGLTFNAIDLARHLPAELDLRGSLLSRKPSDNKKRSGSNAAASLPSKKLKTEDGFVIPALPAAVSKSLQESGDTQEEDEEEEDLDADTEDPHSASLINSHLKILASSNFPFLNETKPGVYYVPYSKLMPVLKSSVYEYVIASTLGPSAMRLSRCIRDNKLVSEKIINSTALMKEKDIRSTLASLIRYNSVEIQEVPRTADRSASRAVFLFRCKETHSYNFMRQNLEWNMANLLFKKEKLKQENSTLLKKANRDDVKGRENELLLPSELNQLKMVNERELNVFARLSRLLSLWEVFQMA
B3: RNA polymerase III subunit C34 (natural protein, S. cerevisiae)
chain: MSGMIENGLQLSDNAKTLHSQMMSKGIGALFTQQELQKQMGIGSLTDLMSIVQELLDKNLIKLVKQNDELKFQGVLESEAQKKATMSAEEALVYSYIEASGREGIWSKTIKARTNLHQHVVLKCLKSLESQRYVKSVKSVKFPTRKIYMLYSLQPSVDITGGPWFTDGELDIEFINSLLTIVWRFISENTFPNGFKNFENGPKKNVFYAPNVKNYSTTQEILEFITAAQVANVELTPSNIRSLCEVLVYDDKLEKVTHDCYRVTLESILQMNQGEGEPEAGNKALEDEEEFSIFNYFKMFPASKHDKEVVYFDEWTI
B4: Pol III stalk (subunits C17 and C25) (complex, S. cerevisiae)
chain 1: MKVLEERNAFLSDYEVLKFLTDLEKKHLWDQKSLAALKKSRSKGKQNRPYNHPELQGITRNVVNYLSINKNFINQEDEGEERESSGAKDAEKSGISKMSDESFAELMTKLNSFKLFKAEKLQIVNQLPANMVHLYSIVEECDARFDEKTIEEMLEIISGYA
chain 2: MFILSKIADLVRIPPDQFHRDTISAITHQLNNKFANKIIPNVGLCITIYDLLTVEEGQLKPGDGSSYINVTFRAVVFKPFLGEIVTGWISKCTAEGIKVSLLGIFDDIFIPQNMLFEGCYYTPEESAWIWPMDEETKLYFDVNEKIRFRIEREVFVDVKPKSPKERELEERAQLENEIEGKNEETPQNEKPPAYALLGSCQTDGMGLVSWWE
B5: RNA polymerase III stalk subunit C25 (natural protein, S. cerevisiae)
chain: B4 chain 2

Common to all, as to assay: cryo-EM structure
The target in assay [1] is B4.
The target in assay [2] is B2.
Assay [3] addresses T1, RNA polymerase III subunit C160.

For the molecule B1, the binding result in assay [1] and in assay [2] was “binds” each time. Take B2: in assay [3], the binding result was “binds”.

B3: the binding result in assay [3] and in assay [2] was “binds” each time.

For the molecule B4, the binding result in assay [3] is listed as “binds”.

As to B5, the binding result in assay [3] is “binds”.
